Test results as given in PMC5013986 (RNA Biology, 2016).
Read-outs that look alike come from different tables or passages of the source.

B1: RNase J1 (enzyme)
chain: not shown
B2: Strep-tagged GapA lacking SR1P (enzyme, B. subtilis, UniProt P09124 1-335, looked up)
chain: MAVKVGINGFGRIGRNVFRAALNNPEVEVVAVNDLTDANMLAHLLQYDSVHGKLDAEVSVDGNNLVVNGKTIEVSAERDPAKLSWGKQGVEIVVESTGFFTKRADAAKHLEAGAKKVIISAPANEEDITIVMGVNEDKYDAANHDVISNASCTTNCLAPFAKVLNDKFGIKRGMMTTVHSYTNDQQILDLPHKDYRRARAAAENIIPTSTGAAKAVSLVLPELKGKLNGGAMRVPTPNVSLVDLVAELNQEVTAEEVNAALKEAAEGDLKGILGYSEEPLVSGDYNGNKNSSTIDALSTMVMEGSMVKVISWYDNESGYSNRVVDLAAYIAKKGL
B3: untagged GapA (enzyme, UniProt P09124 1-335, looked up)
chain: B2 chain
B4: GapA_(Strep)/SR1P (Strep-tagged GapA carrying SR1P) (complex)
chain 1: B2 chain
chain 2: MGTIVCQDCNEAIHYFEDEKVTTLYGTCCGQCQCPVDEE

How the values were obtained:
[1] = molecular target: B4; assay: pull-down
[2] = molecular target: B2; assay: pull-down
[3] = molecular target: T1, His-tagged RNase J1 (B. subtilis, UniProt Q45493 1-555); assay: far-Western, overlay or dot blot
[4] = molecular target: T1, His-tagged RNase J1; assay: far-Western, overlay or dot blot; remark: listed apart in the source

T1 sequence (Q45493 whole entry): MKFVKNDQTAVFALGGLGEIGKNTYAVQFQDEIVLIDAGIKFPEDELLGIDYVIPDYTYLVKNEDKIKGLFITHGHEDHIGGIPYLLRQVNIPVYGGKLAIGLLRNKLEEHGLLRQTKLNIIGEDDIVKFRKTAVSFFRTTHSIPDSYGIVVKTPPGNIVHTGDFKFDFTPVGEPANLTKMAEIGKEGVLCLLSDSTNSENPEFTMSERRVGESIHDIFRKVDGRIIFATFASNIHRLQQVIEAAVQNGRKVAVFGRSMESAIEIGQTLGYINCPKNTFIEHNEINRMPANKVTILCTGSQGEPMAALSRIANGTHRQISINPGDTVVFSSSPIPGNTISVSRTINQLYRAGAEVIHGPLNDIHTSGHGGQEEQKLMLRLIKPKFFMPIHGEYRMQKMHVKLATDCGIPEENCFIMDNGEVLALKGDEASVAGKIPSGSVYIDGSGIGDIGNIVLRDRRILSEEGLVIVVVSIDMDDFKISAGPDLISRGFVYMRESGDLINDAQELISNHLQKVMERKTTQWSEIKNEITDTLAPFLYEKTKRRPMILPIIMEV

Binder: B1
GapA/SR1P-RNase J1 ratio [1]: 80 GapA/SR1P per RNase J1
GapA-RNase J1 ratio [2]: ~200 GapA per RNase J1

Binder: B2
binding result [3]: binds

Binder: B3
binding result [3]: binds

Binder: B4
binding result [4]: binds
